The supplement of paper PMC7125110
± gives the standard error. For part of these data: Variants at the floor of the assay were thinned out.

B1: glmS ribozyme (parent)
chain: AUAAAAGCGCCAGAACUACAGAAAUGUAGUUGACGAGGAGGAGGUUUAUCGAAUUUUCGGCGGAUGCCUCCAAA

What was measured:
Settings in all cases: with glucosamine-6-phosphate
glucosamine-6-phosphate [1] = variants of: B1; experiment: kcat; higher = faster cleavage; RNA array
How it was run: (§1)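 Glucosamine-6-phosphate in HEPES/KCl/Mg(OAc)2 buffer, at 40 μM to 10 mM, was flowed over barcoded ribozyme variants transcribed in situ by E. coli RNA polymerase on sequenced MiSeq chips. Tracking was through a hybridised Cy3 probe at 37 °C. kobs, kcat and KM came from exponential decay fits and weighted Michaelis–Menten fits of normalised per-tile medians.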

glucosamine-6-phosphate [2] = variants of: B1; experiment: self-cleavage kobs at 40 uM GlcN6P; higher = faster cleavage; RNA array
How it was run: as §1

glucosamine-6-phosphate [3] = variants of: B1; experiment: self-cleavage kobs at 160 uM GlcN6P; higher = faster cleavage; RNA array
How it was run: as §1

glucosamine-6-phosphate [4] = variants of: B1; experiment: self-cleavage kobs at 640 uM GlcN6P; higher = faster cleavage; RNA array
How it was run: as §1

glucosamine-6-phosphate [5] = variants of: B1; experiment: self-cleavage kobs at 2500 uM GlcN6P; higher = faster cleavage; RNA array
How it was run: as §1

glucosamine-6-phosphate [6] = variants of: B1; experiment: self-cleavage kobs at 10000 uM GlcN6P; higher = faster cleavage; RNA array
How it was run: as §1

glucosamine-6-phosphate [7] = variants of: B1; experiment: KM; higher = weaker cofactor use; RNA array
How it was run: as §1

Variant	kcat (glucosamine-6-phosphate [1])	self-cleavage kobs at 40 uM GlcN6P (glucosamine-6-phosphate [2])	self-cleavage kobs at 160 uM GlcN6P (glucosamine-6-phosphate [3])	self-cleavage kobs at 640 uM GlcN6P (glucosamine-6-phosphate [4])	self-cleavage kobs at 2500 uM GlcN6P (glucosamine-6-phosphate [5])	self-cleavage kobs at 10000 uM GlcN6P (glucosamine-6-phosphate [6])	KM (glucosamine-6-phosphate [7])
U31G C71U	0.0144 ± 0.0067 s⁻¹	0.000277 ± 3.1e-05 s⁻¹	0.000479 ± 8.2e-05 s⁻¹	0.00235 ± 0.00045 s⁻¹	0.00836 ± 0.0019 s⁻¹	0.0107 ± 0.0016 s⁻¹	
G29A U31G	0.000319 ± 2.2e-05 s⁻¹		3.63e-05 ± 1e-05 s⁻¹	9.51e-05 ± 1.6e-05 s⁻¹	0.000217 ± 3.4e-05 s⁻¹	0.000272 ± 5.4e-05 s⁻¹	1380 ± 180 µM
A14C G29U	0.000857 ± 0.00017 s⁻¹	4.05e-05 ± 1.2e-05 s⁻¹	5.99e-05 ± 1.3e-05 s⁻¹	0.000267 ± 3.9e-05 s⁻¹	0.000556 ± 8.5e-05 s⁻¹	0.000697 ± 0.0001 s⁻¹	1650 ± 550 µM
C16G U31C	0.000606 ± 0.00011 s⁻¹			8.88e-05 ± 1.7e-05 s⁻¹	0.000269 ± 4.6e-05 s⁻¹	0.000401 ± 0.00011 s⁻¹	3720 ± 980 µM
A14U G59A	6.06e-05 ± 3.3e-06 s⁻¹	< 1e-05 s⁻¹	< 1e-05 s⁻¹			3.03e-05 ± 1.1e-05 s⁻¹	9990 ± 1000 µM
A12U A33U	0.000444 ± 0.0001 s⁻¹			7.77e-05 ± 8.6e-06 s⁻¹	0.00015 ± 1.6e-05 s⁻¹	0.000348 ± 3.2e-05 s⁻¹	3790 ± 1500 µM
A12G A14G	0.00308 ± 0.00041 s⁻¹	2.51e-05 ± 6.2e-06 s⁻¹	8.41e-05 ± 1.3e-05 s⁻¹	0.000405 ± 4.5e-05 s⁻¹	0.00121 ± 0.00015 s⁻¹	0.00203 ± 0.00016 s⁻¹	4770 ± 950 µM
U55G U65G	0.00419 ± 0.00048 s⁻¹	5.26e-05 ± 1.1e-05 s⁻¹	0.00022 ± 6.1e-05 s⁻¹	0.000628 ± 0.0001 s⁻¹	0.00164 ± 0.00022 s⁻¹	0.0033 ± 0.00045 s⁻¹	3440 ± 580 µM
A6U A39U C70U	6.69e-05 ± 6e-06 s⁻¹			3.98e-05 ± 1.7e-05 s⁻¹	4.96e-05 ± 1.8e-05 s⁻¹	6.76e-05 ± 1.9e-05 s⁻¹	506 ± 210 µM
A12U C16A U56A	0.00194 ± 0.00074 s⁻¹	0.000111 ± 2e-05 s⁻¹		0.000636 ± 0.00015 s⁻¹	0.00102 ± 0.00035 s⁻¹	0.00247 ± 0.00041 s⁻¹	
G29U G59U	< 1e-05 s⁻¹		< 1e-05 s⁻¹				
G38C A48G	< 1e-05 s⁻¹			< 1e-05 s⁻¹			
U47C G63A	< 1e-05 s⁻¹			< 1e-05 s⁻¹			
A64U	0.00017 ± 6.8e-06 s⁻¹		1.18e-05 ± 2.4e-06 s⁻¹	4.12e-05 ± 1.3e-06 s⁻¹	0.000102 ± 1.9e-06 s⁻¹	0.000141 ± 2.2e-06 s⁻¹	1860 ± 190 µM
A64C	0.000188 ± 1.2e-05 s⁻¹		1.42e-05 ± 3e-06 s⁻¹	5.05e-05 ± 1.6e-06 s⁻¹	0.000127 ± 3e-06 s⁻¹	0.000157 ± 2.8e-06 s⁻¹	1610 ± 260 µM
A42U U55C	0.000267 ± 2.5e-05 s⁻¹			8.56e-05 ± 9.8e-06 s⁻¹	0.000198 ± 3e-05 s⁻¹	0.000223 ± 3e-05 s⁻¹	1350 ± 250 µM
A14G G66U	0.00542 ± 0.00096 s⁻¹	0.000114 ± 1.2e-05 s⁻¹	0.00039 ± 4e-05 s⁻¹	0.00094 ± 0.00012 s⁻¹	0.00287 ± 0.00033 s⁻¹	0.00464 ± 0.0004 s⁻¹	2220 ± 560 µM
U54C G62C	< 1e-05 s⁻¹	< 1e-05 s⁻¹	< 1e-05 s⁻¹	< 1e-05 s⁻¹	< 1e-05 s⁻¹		133 ± 48 µM
G29A U54G	0.00345 ± 0.00074 s⁻¹	5.97e-05 ± 1.1e-05 s⁻¹	0.000165 ± 2.7e-05 s⁻¹	0.000767 ± 0.00012 s⁻¹	0.00138 ± 0.00023 s⁻¹	0.00293 ± 0.00042 s⁻¹	2790 ± 830 µM
G38C G66C C70U	1.23e-05 ± 9.7e-07 s⁻¹			< 1e-05 s⁻¹			
C11U U57A	1.44e-05 ± 2.1e-06 s⁻¹						
U45C A48U	7.71e-05 ± 4.6e-06 s⁻¹				6.49e-05 ± 1.5e-05 s⁻¹	6.96e-05 ± 1.9e-05 s⁻¹	628 ± 170 µM
U30G G40U	0.000787 ± 9.4e-05 s⁻¹	3.53e-05 ± 1.3e-05 s⁻¹	6.94e-05 ± 1.5e-05 s⁻¹	0.000212 ± 2.9e-05 s⁻¹	0.000615 ± 0.00014 s⁻¹	0.000668 ± 7.3e-05 s⁻¹	1610 ± 350 µM
U30G G40C	0.000669 ± 0.0001 s⁻¹	3.69e-05 ± 1.2e-05 s⁻¹	0.000103 ± 1.9e-05 s⁻¹	0.000265 ± 3.4e-05 s⁻¹	0.000619 ± 8.6e-05 s⁻¹	0.000544 ± 0.0001 s⁻¹	864 ± 240 µM
A53C G66A	0.00434 ± 0.0011 s⁻¹	0.000154 ± 2.2e-05 s⁻¹	0.000292 ± 6.4e-05 s⁻¹	0.00107 ± 0.00017 s⁻¹	0.00288 ± 0.00047 s⁻¹	0.00374 ± 0.00053 s⁻¹	1670 ± 640 µM
G13U A53G C68G	4.16e-05 ± 3.1e-06 s⁻¹				4.16e-05 ± 1.5e-05 s⁻¹		
G13A U54A	0.000832 ± 0.00029 s⁻¹	5.62e-05 ± 2.4e-05 s⁻¹	5.51e-05 ± 1.6e-05 s⁻¹	0.000147 ± 3.8e-05 s⁻¹	0.000299 ± 5.6e-05 s⁻¹	0.000709 ± 0.0001 s⁻¹	
G13C G29U	0.000169 ± 1.6e-05 s⁻¹			3.22e-05 ± 1.3e-05 s⁻¹	6.58e-05 ± 8.4e-06 s⁻¹	0.000125 ± 1.6e-05 s⁻¹	3700 ± 710 µM
U47G U55G	0.00601 ± 0.0021 s⁻¹	0.000247 ± 4.9e-05 s⁻¹		0.00195 ± 0.00043 s⁻¹	0.00249 ± 0.001 s⁻¹	0.00706 ± 0.0012 s⁻¹	
